The supplement of paper PMC10567573

B1: ANKRD17 (parent)
chain: EMVRFLLEAGADQEHKTDEMHTAL
B2: VAMP4 (parent)
chain: IMALVAAILLLVIIILIVMKYRT

Variants of: B1
Assay: protein stability index of a GFP-peptide fusion (GPS, HEK-293T) (PSI 1-6); higher = more stable
Conditions: c terminus: a fixed tail appended
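Also: lentivirally expressed fusions sorted by FACS into six bins by GFP to DsRed ratio, PSI derived from sequencing read proportions per bin multiplied by bin number.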

In order of falling protein stability index:
1. L24D  4.06
2. L24E  3.79
3. A23Q  3.69
4. L24K  3.3
5. L24Q  3.14
6. A23P  3.12
7. A23W  3.12
8. A23D  3.06
9. A23S  3.05
10. L24T  3.05
11. A23Y  3.03
12. L24N  3.03
13. A23N  3.01
14. L24G  3
15. L24S  2.99
16. A23I  2.97
17. A23R  2.96
18. L24Y  2.95
19. A23E  2.91
20. L24H  2.78
21. A23K  2.76
22. L24A  2.75
23. L24C  2.75
24. A23T  2.74
25. A23G  2.72
26. L24R  2.72
27. A23M  2.7
28. A23H  2.69
29. L24W  2.68
30. L24V  2.62
31. A23V  2.6
32. A23C  2.49
33. A23L  2.43
34. L24P  2.4
35. L24M  2.37
36. L24F  2.34
37. L24I  2.31
38. A23F  2.18
39. T22Y  1.93
40. T22W  1.91

Variants of: B2
Assay: as above
Conditions: c terminus: native

In order of rising protein stability index:
1. A3D  1.33
2. I13D  1.4
3. I14D  1.5
4. L4E  1.57
5. V12E  1.6
6. A7E  1.62
7. V12D  1.65
8. I15H  1.69
9. I13E  1.77
10. L4N  1.79
11. L10E  1.79
12. V5Q  1.83
13. I15W  1.84
14. V5N  1.84
15. A7H  1.84
16. I15Q  1.89
17. I15R  1.9
18. A7Q  1.91
19. I14K  1.92
20. I14H  1.92
21. M2N  1.93
22. I15N  1.95
23. L10P  1.95
24. L9R  1.95
25. L9E  1.96
26. L10K  1.97
27. I13K  1.98
28. I15D  2
29. I8Q  2.01
30. I14E  2.02
31. A6W  2.02
32. A7N  2.02
33. L10Y  2.03
34. I15K  2.04
35. V12K  2.06
36. A6Y  2.06
37. A6H  2.06
38. V5K  2.1
39. A6N  2.1
40. L9Y  2.12
41. V5H  2.13
42. I8H  2.14
43. I14N  2.17
44. L4Q  2.19
45. A3E  2.2
46. I14Q  2.23
47. L11N  2.25
48. I15Y  2.26
49. I8Y  2.26
50. L11E  2.27
51. L11D  2.28
52. L9Q  2.29
53. V12H  2.3
54. A6E  2.3
55. L4H  2.36
56. V5P  2.36
57. A6Q  2.37
58. A7D  2.37
59. M2H  2.4
60. M2E  2.4
61. L9N  2.4
62. V5E  2.42
63. I15E  2.43
64. L9P  2.43
65. L16D  2.44
66. L10H  2.46
67. A3N  2.46
68. V12Y  2.47
69. A6R  2.47
70. I8W  2.47
71. V12N  2.48
72. L10N  2.48
73. I8N  2.48
74. V12R  2.49
75. I1D  2.5
76. L9K  2.5
77. L9H  2.52
78. V12Q  2.54
79. A6P  2.54
80. I14R  2.56
81. L11Q  2.6
82. L11K  2.61
83. V12P  2.62
84. V12W  2.65
85. I15S  2.65
86. I13P  2.66
87. L10Q  2.67
88. L11Y  2.68
89. A6K  2.68
90. L9D  2.68
91. I8E  2.68
92. I1N  2.69
93. I14W  2.71
94. L11H  2.71
95. M2V  2.72
96. I8R  2.72
97. I8K  2.72
98. V5R  2.73
99. M2A  2.73
100. L16K  2.73
101. L10G  2.73
102. A7P  2.75
103. L4Y  2.76
104. L9W  2.76
105. I1E  2.77
106. V5D  2.77
107. L4K  2.78
108. L10W  2.78
109. I15F  2.79
110. A6D  2.8
111. I13V  2.8
112. M2T  2.81
113. L4P  2.83
114. L11W  2.84
115. L10C  2.84
116. A3H  2.85
117. I8P  2.85
118. L10S  2.86
119. A3S  2.86
120. I13Q  2.86
121. L10T  2.87
122. L10A  2.87
123. I15M  2.88
124. L4D  2.9
125. A3P  2.9
126. L9A  2.92
127. A7Y  2.94
128. I13H  2.94
129. V5S  2.96
130. M2Q  2.96
131. V12C  2.97
132. V5I  2.97
133. L11R  2.98
134. I15G  2.98
135. M2D  2.98
136. M2K  2.98
137. M2G  2.98
138. I8C  3.01
139. I14S  3.02
140. I1S  3.02
141. V12M  3.03
142. M2L  3.03
143. A7W  3.03
144. I8V  3.04
145. I15A  3.05
146. L9S  3.05
147. I1R  3.06
148. L10D  3.06
149. L4C  3.07
150. L4A  3.08
151. I15T  3.08
152. L9T  3.08
153. I13R  3.08
154. I14M  3.09
155. A7M  3.09
156. I14P  3.1
157. I1G  3.11
158. I8D  3.13
159. L4V  3.14
160. M2I  3.15
161. A7K  3.15
162. V12T  3.16
163. I1C  3.16
164. L10R  3.16
165. V12S  3.17
166. V5F  3.17
167. A3T  3.17
168. A3G  3.17
169. M2S  3.18
170. L16H  3.18
171. L16G  3.18
172. L4T  3.19
173. I14L  3.19
174. A6C  3.2
175. A6G  3.2
176. L16E  3.2
177. I13G  3.21
178. M2Y  3.22
179. I13Y  3.22
180. V12L  3.23
181. V5L  3.23
182. A6V  3.23
183. I14T  3.25
184. I14V  3.25
185. I1A  3.25
186. I15V  3.25
187. M2C  3.25
188. I8S  3.25
189. I8T  3.25
190. I13C  3.25
191. I14Y  3.26
192. I15L  3.26
193. L11C  3.27
194. M2P  3.28
195. A3Q  3.28
196. A3K  3.28
197. I8L  3.28
198. L4S  3.29
199. L4M  3.29
200. I1K  3.29
201. A7C  3.29
202. L9V  3.3
203. V5T  3.31
204. V12G  3.32
205. L4G  3.32
206. L4I  3.33
207. I14A  3.33
208. L11M  3.33
209. L11I  3.33
210. L9C  3.33
211. A6M  3.34
212. A3C  3.34
213. I8A  3.34
214. L10M  3.35
215. L10I  3.35
216. I14C  3.36
217. V5A  3.36
218. A7R  3.36
219. L9I  3.36
220. I13S  3.36
221. V5G  3.37
222. V5C  3.37
223. I8G  3.37
224. I1V  3.38
225. I1F  3.39
226. I1H  3.39
227. L11S  3.39
228. A6L  3.39
229. V5W  3.4
230. A7T  3.4
231. I8F  3.4
232. L4R  3.42
233. A7I  3.42
234. L11P  3.43
235. A6T  3.43
236. L10F  3.43
237. I14G  3.44
238. L16I  3.44
239. I1Q  3.45
240. A7V  3.45
241. L11V  3.46
242. I13F  3.46
243. V12F  3.47
244. A3W  3.47
245. I14F  3.48
246. L9G  3.48
247. I1L  3.49
248. A3I  3.5
249. I1W  3.51
250. L11A  3.51
251. I15C  3.51
252. A7G  3.51
253. I1Y  3.52
254. I1T  3.53
255. M2F  3.53
256. M2R  3.53
257. L10V  3.53
258. A3F  3.55
259. A3Y  3.55
260. I1M  3.56
261. I1P  3.56
262. L11T  3.56
263. L9F  3.56
264. L16A  3.57
265. L11F  3.58
266. A7L  3.58
267. A3R  3.58
268. I13N  3.58
269. L4W  3.59
270. A3V  3.59
271. L16F  3.6
272. A6I  3.61
273. V12A  3.62
274. I13W  3.63
275. V12I  3.64
276. L16C  3.65
277. A3L  3.65
278. M2W  3.66
279. L4F  3.69
280. I8M  3.69
281. L11G  3.71
282. A6S  3.71
283. V5Y  3.72
284. A3M  3.72
285. A7F  3.74
286. L9M  3.74
287. A6F  3.75
288. V5M  3.81
289. A7S  3.81
290. I13L  3.81
291. I13T  3.82
292. I13A  3.86
293. I15P  3.92
294. I13M  3.97
